Test results from US9266952B2, “Antibodies against ROR1 and uses thereof” (KANCERA AB, priority 2010, dated 2016).

Test system: primary patient CLL cells
Assay: Primary patient CLL cells i.v. in irradiated NOD.SCID mice, spleen
Assay type: in vivo
Details: 10 mg/kg i.p. from day 5-7 after transfer, sacrificed 3-7 days later, versus isotype control
Protocol: Primary patient CLL cells are intravenously injected into immuno-deficient NOD. SCID mice. The CLL cells home to the spleen and there form proliferating clusters, very similar to human disease. After allowing to settle in the spleen for 5-7 days, the mice were treated with 10 mg/kg anti-ROR1 antibodies every third day and terminated after (A) 7 days, n=7 mice/group; (B) 7 days, n=9-10 mice/group; (C) 4 days, n=8 mice/group; (D) 3 days, n=5 mice/group. At termination the number of CLL cells is quantified in spleen using FACS staining of human CD45, CD19 and CD20. Each figure represents cells from individual CLL patients.
NOD.SCID mice received whole-body irradiation of 1 Gy 1 day prior to injection of primary patient cells.
PBMCs were isolated from peripheral blood of four CLL patients using the Ficoll Hypaque technique. Thereafter, 100×10^6 cells was injected i.v into irradiated NOD.SCID mice. The mice were treated i.p with 10 mg/kg of the ROR1 specific mAb 009-G03, or irrelevant negative control mAb at day 5-7 after transfer of cells to mice and sacrificed 3-7 days later. […]
Spleens were dissected out, minced, and lysed for red blood cells. The cell suspension were stained with fluorochrome conjugated mAb's recognizing human CD45, CD19 or CD20 and CLL cells were quantified as being either CD45^+CD19^+ or CD45^+CD20^+. […]

B1: 010-D06: ROR1 specific mAb, VH SEQ ID NO: 27, VL SEQ ID NO: 28 (FIG. 15) (antibody, listed as Mus musculus, V domains shown)
VH: EVQLLESGGGLVQPGGSLRLSCAASGFTFRDYGMHWVRQAPGKGLEWVSAISGSGGSTFYADSVKGRFTISRDNSKNTLYLQMNSLRAEDTAVYYCARGRSAGSMGYFDYWGQGTLVTVSS
VL: QSVLTQPPSASGTPGQRVTISCTGSSSNIGAGYDVHWYQQLPGTAPKLLIYGNSNRPSGVPDRFSGSKSGTSASLAISGLRSEDEADYYCAAWDDSLNGWVFGGGTKLTVLG
  number of grafted CLL cells in the spleen: significantly reduces the number of grafted CLL cells in the spleen
